Experimental data: IntAct's records for PubMed 28514442

B1: WASH complex subunit 5 (Homo sapiens), Q12768 (parent)
chain: MLDFLAENNLCGQAILRIVSCGNAIIAELLRLSEFIPAVFRLKDRADQQKYGDIIFDFSYFKGPELWESKLDAKPELQDLDEEFRENNIEIVTRFYLAFQSVHKYIVDLNRYLDDLNEGVYIQQTLETVLLNEDGKQLLCEALYLYGVMLLVIDQKIEGEVRERMLVSYYRYSAARSSADSNMDDICKLLRSTGYSSQPGAKRPSNYPESYFQRVPINESFISMVIGRLRSDDIYNQVSAYPLPEHRSTALANQAAMLYVILYFEPSILHTHQAKMREIVDKYFPDNWVISIYMGITVNLVDAWEPYKAAKTALNNTLDLSNVREQASRYATVSERVHAQVQQFLKEGYLREEMVLDNIPKLLNCLRDCNVAIRWLMLHTADSACDPNNKRLRQIKDQILTDSRYNPRILFQLLLDTAQFEFILKEMFKQMLSEKQTKWEHYKKEGSERMTELADVFSGVKPLTRVEKNENLQAWFREISKQILSLNYDDSTAAGRKTVQLIQALEEVQEFHQLESNLQVCQFLADTRKFLHQMIRTINIKEEVLITMQIVGDLSFAWQLIDSFTSIMQESIRVNPSMVTKLRATFLKLASALDLPLLRINQANSPDLLSVSQYYSGELVSYVRKVLQIIPESMFTSLLKIIKLQTHDIIEVPTRLDKDKLRDYAQLGPRYEVAKLTHAISIFTEGILMMKTTLVGIIKVDPKQLLEDGIRKELVKRVAFALHRGLIFNPRAKPSELMPKLKELGATMDGFHRSFEYIQDYVNIYGLKIWQEEVSRIINYNVEQECNNFLRTKIQDWQSMYQSTHIPIPKFTPVDESVTFIGRLCREILRITDPKMTCHIDQLNTWYDMKTHQEVTSSRLFSEIQTTLGTFGLNGLDRLLCFMIVKELQNFLSMFQKIILRDRTVQDTLKTLMNAVSPLKSIVANSNKIYFSAIAKTQKIWTAYLEAIMKVGQMQILRQQIANELNYSCRFDSKHLAAALENLNKALLADIEAHYQDPSLPYPKEDNTLLYEITAYLEAAGIHNPLNKIYITTKRLPYFPIVNFLFLIAQLPKLQYNKNLGMVCRKPTDPVDWPPLVLGLLTLLKQFHSRYTEQFLALIGQFICSTVEQCTSQKIPEIPADVVGALLFLEDYVRYTKLPRRVAEAHVPNFIFDEFRTVL

Variants of: B1
Settings: with pcna_human PCNA
L619F was tested, and the “effect of a mutation on the interaction” value was “with no effect”. V626F was tested, and the “effect of a mutation on the interaction” value was “with no effect”. For N471D, the “effect of a mutation on the interaction” value was “with no effect”.
